The results in this text go back to patent US20260193326A1 (published 2026).

Test [1] concerns the target Adeno-associated virus serotype 5 (AAV5) (AAV5). Briefly: SPR, AAV amine-coupled to CM5 chip, nanobody 1-50 nM as analyte.
For test [2], the target named is Adeno-associated virus serotype 9 (AAV9) (AAV9). The description is as above.
In test [3] the target is Adeno-associated virus serotype 8 (AAV8) (AAV8). The test is described as above.
In test [4] the target is T1, AAV5 (adeno-associated virus serotype 5).
T1 construct: also called adeno-associated virus serotype 5
Briefly: SPR, AAV on CM5 chip.

The target in test [5] is T2, AAV9 (adeno-associated virus serotype 9).
T2 construct: also called adeno-associated virus serotype 9
Briefly: SPR, AAV on CM5 chip. (In general: Surface plasmon resonance follows binding to a sensor surface in real time, without labels.)

Test [6] concerns the target T3, AAV8 (adeno-associated virus serotype 8).
T3 construct: also called adeno-associated virus serotype 8
The experiment in a line: SPR, AAV on CM5 chip.

For test [7], the target named is T4, AAV2 (adeno-associated virus serotype 2, UniProt P03135 1-735).
T4 construct: also called adeno-associated virus serotype 2
The experiment in a line: SPR, AAV on CM5 chip.
Method: (§1) AAV was amine-coupled to a CM5 sensor chip at a density of 500-800 response units (RU). Nanobodies were injected at seven concentrations (1-100 nM) with a flow rate of 45 μL/min, and chip regeneration was performed using glycine-HCl (pH 1.5). Binding curves at different nanobody concentrations were used to calculate kinetic parameters (Kₐ, Kd, KD) (Table 2 and FIG. 2).

The target in test [8] is T1, AAV5. Briefly: SPR, AAV on CM5 chip. The source holds these as a separate data set.
Method: as §1
Test [9] addresses T2, AAV9. Briefly: SPR, AAV on CM5 chip. The source holds these as a separate data set.
Method: as §1
Test [10] deals with T3, AAV8. The experiment in a line: SPR, AAV on CM5 chip. This is another data set of the same source.
Method: as §1
Test [11] has as its target T5, AAV9.
T5 construct: also called adeno-associated virus serotype 9
Briefly: SPR, AAV on CM5 chip.
Method: as §1

The target in test [12] is T6, AAV5.
T6 construct: also called adeno-associated virus serotype 5
The experiment in a line: SPR, AAV on CM5 chip.
Method: as §1

Test [13] concerns the target T7, AAV2 (UniProt P03135 1-735).
T7 construct: also called adeno-associated virus serotype 2
Briefly: SPR, AAV on CM5 chip.
Method: as §1

Test [14] addresses T8, AAV8.
T8 construct: also called adeno-associated virus serotype 8
The experiment in a line: SPR, AAV on CM5 chip.
Method: as §1

Numbering of substitutions follows the chain as printed. Read-outs that look alike come from different tables or passages of the source.

B1: A4-M1 (A4-017 with an N-terminal amino acid sequence MetAlaGln) (VHH)
VHH: QVQLQESGGGLVQPGGSLRLSCAASGSIFSINLMGWYRQAPGKQRELVATITRGGNTNYAGSVKGRFTISRDNAKNTVYLQMNSLRPEDTAVYYCHVDEVRQSSWTTSNLWGQGTQVTVSS
On to B1, for which the Kd (usually a measure of binding affinity in units of concentration) worked out at 324 nM in test [1], 0.821 nM in test [2] and 196 nM in [3]. The koff – broadly, a measure of how fast the partners let go of each other – turned out to be 0.00189 s⁻¹ in test [1], 0.00015 s⁻¹ in test [2] and 0.0014 s⁻¹ in test [3]. For the same molecule, the kon (commonly a measure of how fast the partners come together) in test [1] came out at 5830 M⁻¹ s⁻¹; in [2], 183000 M⁻¹ s⁻¹; in test [3] it was 7150 M⁻¹ s⁻¹.

B2: A4-M2 (A4-017 with an N-terminal methionine) (VHH)
VHH: B1 VHH
Turning to B2, in test [1], the affinity, expressed as Kd, was 415 nM; the koff came out at 0.002 s⁻¹; the kon is 4820 M⁻¹ s⁻¹. Moreover, in [2], the affinity, expressed as Kd, was 0.874 nM; the koff is 0.00013 s⁻¹; the kon was 149000 M⁻¹ s⁻¹. In [3], this molecule returned a Kd of 171 nM, a koff of 0.001 s⁻¹ and a kon of 5830 M⁻¹ s⁻¹.

B3: A4-H5 (VHH)
VHH: VQLQASGGGFVQPGGSLRLSCAASGRGFSINTMGWFRQAPGKERELVAVVTRGGTTYYADSVKGRFTISRDNSKNTVYLQMNSLRAEDTAVYYCHVDEVRQSSWTTSNLWGQGTQVTVSS
On to B3, for which the figures for the Kd with AAV5 [4], with AAV9 [5] and with AAV8 [6] were 823 nM, 1900 nM and 302 nM, respectively. The figures for the dissociation rate constant (koff) in the test with AAV5 [4], with AAV9 [5] and in the test with AAV8 [6] were 0.00152 s⁻¹, 0.0058 s⁻¹ and 0.0013 s⁻¹, respectively. In addition, the on-rate constant (kon) with AAV5 [4] worked out at 1850 M⁻¹ s⁻¹; in the test with AAV9 [5] it was 3050 M⁻¹ s⁻¹; with AAV8 [6], 4300 M⁻¹ s⁻¹.

B4: A4-H2 (VHH)
VHH: B3 VHH with G27S, L46F, T55S, V91T, V96I, L109I
In the test with AAV5 [4], B4 displayed a Kd of 8.51 nM, a koff of 0.00139 s⁻¹ and a kon of 163000 M⁻¹ s⁻¹. Also, in the test with AAV9 [5], the Kd is 400 nM, the koff worked out at 0.00188 s⁻¹ and the kon was 4700 M⁻¹ s⁻¹. Moreover, in the test with AAV8 [6], the Kd was found to be 1.98 nM, the koff amounted to 0.00028 s⁻¹ and the kon was determined as 141000 M⁻¹ s⁻¹.

B5: A4-H3 (VHH)
VHH: B3 VHH with R26S, G27I, T32L, V50I, R52P, T55N, V91T
For B5, in the test with AAV5 [4], the Kd came out at 3.05 nM, the koff stood at 0.00048 s⁻¹ and the kon amounted to 157000 M⁻¹ s⁻¹. In the test with AAV9 [5], this molecule returned a Kd of 4.32 nM, a koff of 0.00073 s⁻¹ and a kon of 169000 M⁻¹ s⁻¹. In the test with AAV8 [6], this molecule registered a Kd of 9.59 nM, a koff of 0.00128 s⁻¹ and a kon of 134000 M⁻¹ s⁻¹.

B6: A4-105 (VHH)
VHH: VQLQESGGGLVQPGGSLRLSCAASGSIFSLNAMGWYRQAPGKQRELVATITSGGSTNYADSVKGRFTISRDNAKNTAYLQMNNLQPEDTAVYYCHVDEVRESIWTTSNLWGQGTQVTVSS
B6: the Kd with AAV2 [7] was 34.2 nM; with AAV5 [8], 14 nM; in the test with AAV9 [9], 17 nM; with AAV8 [10] it was 21.7 nM. Also, the koff with AAV2 [7] came out at 0.00543 s⁻¹; with AAV5 [8] it was 0.00139 s⁻¹; in the test with AAV9 [9], 0.00189 s⁻¹; with AAV8 [10], 0.00391 s⁻¹. Further, the kon with AAV2 [7] was 159000 M⁻¹ s⁻¹; with AAV5 [8], 99600 M⁻¹ s⁻¹; with AAV9 [9], 111000 M⁻¹ s⁻¹; in the test with AAV8 [10] it was 180000 M⁻¹ s⁻¹.

B7: A4-T2 (A4-017 with a C-terminal GGGGS linker followed by a 6xHis tag) (VHH)
VHH: B6 VHH with L30I, A32L, S52R, S55N, D60G, A77V, N83S, Q85R, E101Q, I103S
As to B7, in test [1], the affinity, expressed as Kd, was 234 nM; the koff was found to be 0.00147 s⁻¹; the kon came out at 6280 M⁻¹ s⁻¹. In [2], this molecule yielded a Kd of 0.513 nM, a koff of 0.0001 s⁻¹ and an on-rate (kon) of 195000 M⁻¹ s⁻¹. In test [3], the Kd turned out to be 102 nM, the off-rate constant (koff) amounted to 0.00078 s⁻¹ and the kon came out at 7650 M⁻¹ s⁻¹.

B8: A4-L1 (A4-017 with a C-terminal IgA hinge followed by a 6xHis tag) (VHH)
VHH: B6 VHH with L30I, A32L, S52R, S55N, D60G, A77V, N83S, Q85R, E101Q, I103S
As for B8, the figures for the Kd in [1], in [2] and in test [3] were 569 nM, 0.802 nM and 220 nM, respectively. Moreover, the koff is 0.00092 s⁻¹ in test [1], 0.00011 s⁻¹ in test [2] and 0.00093 s⁻¹ in [3]. The kon in [1] came out at 1620 M⁻¹ s⁻¹; in [2], 137000 M⁻¹ s⁻¹; in [3] it was 4230 M⁻¹ s⁻¹.

B9: A4-T1 (A4-017 with a C-terminal 6xHis tag) (VHH)
VHH: B6 VHH with L30I, A32L, S52R, S55N, D60G, A77V, N83S, Q85R, E101Q, I103S
In [1], B9 had a Kd of 268 nM, a koff of 0.00193 s⁻¹ and a kon of 7200 M⁻¹ s⁻¹. Moreover, in [2], the affinity, expressed as Kd, was 0.713 nM; the koff came out at 0.00012 s⁻¹; the kon was 168000 M⁻¹ s⁻¹. In test [3], the Kd worked out at 202 nM, the koff was found to be 0.00148 s⁻¹ and the kon came to 7310 M⁻¹ s⁻¹.

B10: A4-046 (VHH)
VHH: B6 VHH with I27R, L30I, A32T, I50V, S52R, A77V, N83S, Q85R, E101Q, I103S
B10: the Kd with AAV9 [11] turned out to be 16.1 nM; with AAV5 [12] it was 55.3 nM; with AAV2 [13], 48.8 nM; in the test with AAV8 [14] it was 37.6 nM. Moreover, the koff was 0.00269 s⁻¹ with AAV9 [11], 0.00933 s⁻¹ with AAV5 [12], 0.00725 s⁻¹ with AAV2 [13] and 0.00455 s⁻¹ in the test with AAV8 [14]. Besides, the kon is 167000 M⁻¹ s⁻¹ with AAV9 [11], 169000 M⁻¹ s⁻¹ with AAV5 [12], 148000 M⁻¹ s⁻¹ in the test with AAV2 [13] and 121000 M⁻¹ s⁻¹ with AAV8 [14].

B11: A4-048 (VHH)
VHH: VQLQESGGGLVQPGGSLRLSCAASGSMFSINTMGWYRQAPGKQRELVATVTRGGNTNYAGSVKGRFTISRDNAKNTVYLQMNSLRPEDTAVYYCHVDEVRQSSWTTSNLWGQGTQVTVSS
As for B11, the Kd in the test with AAV9 [11] turned out to be 399 nM; with AAV5 [12], 54.4 nM; with AAV2 [13] it was 155 nM; in the test with AAV8 [14] it was 146 nM. Moreover, the koff was 0.0013 s⁻¹ with AAV9 [11], 0.00051 s⁻¹ in the test with AAV5 [12], 0.00137 s⁻¹ with AAV2 [13] and 0.00031 s⁻¹ with AAV8 [14]. Also, the kon is 3260 M⁻¹ s⁻¹ with AAV9 [11], 9380 M⁻¹ s⁻¹ with AAV5 [12], 8850 M⁻¹ s⁻¹ in the test with AAV2 [13] and 2130 M⁻¹ s⁻¹ in the test with AAV8 [14].

B12: A4-111 (VHH)
VHH: VQLQESGGGLAQPGGSLRLSCAASGSNFSINTMGWYRQRAGKQREFVATITRGGSTNYGDSVKGRFTISRDNAKTTVYLQMNSLRPEDTAVYYCHLDEVRESTWTTSNLWGQGTQVTVSS
For the molecule B12, the Kd stood at 3.51 nM with AAV2 [7], 1.06 nM in the test with AAV5 [8], 2 nM with AAV9 [9] and 1.88 nM with AAV8 [10]. The koff with AAV2 [7] is 0.0002 s⁻¹; with AAV5 [8], 9e-05 s⁻¹; with AAV9 [9], 0.00025 s⁻¹; in the test with AAV8 [10], 0.00014 s⁻¹. The kon in the test with AAV2 [7] was 56900 M⁻¹ s⁻¹; with AAV5 [8], 85300 M⁻¹ s⁻¹; with AAV9 [9], 125000 M⁻¹ s⁻¹; in the test with AAV8 [10], 74500 M⁻¹ s⁻¹.
